Results taken from publication PMC12657763, “SH2-mediated steric occlusion of the C2 domain regulates autoinhibition of SHIP1 inositol 5-phosphatase” (The Journal of Biological Chemistry, 2025).
Where no end group is shown, it is not given here. [ ]: non-standard residue; d: D form. pY = N[C@@H](Cc1ccc(OP(=O)(O)O)cc1)C(=O)O

B3: mNG-SHIP1(FL) (enzyme, human, UniProt Q92835-2 1-1188, looked up)
chain: MVPCWNHGNITRSKAEELLSRTGKDGSFLVRASESISRAYALCVLYRNCVYTYRILPNEDDKFTVQASEGVSMRFFTKLDQLIEFYKKENMGLVTHLQYPVPLEEEDTGDDPEEDTESVVSPPELPPRNIPLTASSCEAKEVPFSNENPRATETSRPSLSETLFQRLQSMDTSGLPEEHLKAIQDYLSTQLAQDSEFVKTGSSSLPHLKKLTTLLCKELYGEVIRTLPSLESLQRLFDQQLSPGLRPRPQVPGEANPINMVSKLSQLTSLLSSIEDKVKALLHEGPESPHRPSLIPPVTFEVKAESLGIPQKMQLKVDVESGKLIIKKSKDGSEDKFYSHKKILQLIKSQKFLNKLVILVETEKEKILRKEYVFADSKKREGFCQLLQQMKNKHSEQPEPDMITIFIGTWNMGNAPPPKKITSWFLSKGQGKTRDDSADYIPHDIYVIGTQEDPLSEKEWLEILKHSLQEITSVTFKTVAIHTLWNIRIVVLAKPEHENRISHICTDNVKTGIANTLGNKGAVGVSFMFNGTSLGFVNSHLTSGSEKKLRRNQNYMNILRFLALGDKKLSPFNITHRFTHLFWFGDLNYRVDLPTWEAETIIQKIKQQQYADLLSHDQLLTERREQKVFLHFEEEEITFAPTYRFERLTRDKYAYTKQKATGMKYNLPSWCDRVLWKSYPLVHVVCQSYGSTSDIMTSDHSPVFATFEAGVTSQFVSKNGPGTVDSQGQIEFLRCYATLKTKSQTKFYLEFHSSCLESFVKSQEGENEEGSEGELVVKFGETLPKLKPIISDPEYLLDQHILISIKSSDSDESYGEGCIALRLEATETQLPIYTPLTHHGELTGHFQGEIKLQTSQGKTREKLYDFVKTERDESSGPKTLKSLTSHDPMKQWEVTSRAPPCSGSSITEIINPNYMGVGPFGPPMPLHVKQTLSPDQQPTAWSYDQPPKDSPLGPCRGESPPTPPGQPPISPKKFLPSTANRGLPPRTQESRPSDLGKNAGDTLPQEDLPLTKPEMFENPLYGSLSSFPKPAPRKDQESPKMPRKEPPPCPEPGILSPSIVLTKAQEADRGEGPGKQVPAPRLRSFTCSSSAEGRAAGGDKSQGKPKTPVSSQAPVPAKRPIKPSRSEINQQTPPTPTPRPPLPVKSPAVLHLQHSKGRDYRDNTELPHHGKHRPEEGPPGPLGRTAMQ

Legend:
mNG-SHIP1(ΔCTD) (human) [1] = test: single-molecule photobleaching (TIRF-M); mNG-tagged SHIP1 bound to supported lipid bilayers with conjugated pY peptides (2% PI(3,4,5)P3, 2% MCC-PE, 96% DOPC); steps of photobleaching counted
[2] = target: pY-ITIM peptide …(pY)SLIK, conjugated to the supported membrane; test: single-molecule TIRF-M dwell time on supported lipid bilayers; pY-ITIM peptide conjugated to the membrane (2% PI(3,4,5)P3, 2% MCC-PE, 96% DOPC); 20–50 pM mNG-SHIP1 in solution; 23 °C; single or double exponential fit of dwell times
mNG-SHIP1(ΔCTD) (human) [3] = test: single-molecule brightness distribution (TIRF-M); mNG-SHIP1 bound to pY peptides on supported lipid bilayers; 50 pM mNG-SHIP1(FL), 50 pM mNG-SHIP1(ΔCTD) or 20 pM mNG-mSHIP1(ΔCTD); particle brightness in the second frame of each trajectory
mNG-SHIP1(FL) = target: B3; test: TIRF-M membrane recruitment (bulk mNG fluorescence on supported lipid bilayers); pY-ITIM peptide conjugated to the membrane (2% PI(3,4,5)P3, 2% MCC-PE, 96% DOPC); 100 pM mNG-SHIP1 in solution; membrane density normalized to mNG-SHIP1(FL); conditions: both partners purified
[4] = target: the molecule itself; test: SEC; purified mNG-SHIP1(RBD) on a size-exclusion chromatography column, multiple protein concentrations
[5] = target: the molecule itself; test: single-molecule photobleaching (TIRF-M); mNG-tagged SHIP1 bound to supported lipid bilayers with conjugated pY peptides (2% PI(3,4,5)P3, 2% MCC-PE, 96% DOPC); steps of photobleaching counted

mNG-SHIP1(ΔCTD) (domain or fragment)
stoichiometry N (mNG-SHIP1(ΔCTD) (human) [1]): 2
membrane dwell time τ1 [2]: 0.359 s
membrane dwell time τ1 (dimers only) [2]: 1.79 s
membrane dwell time τ2 [2]: 1.83 s
estimated fraction existing as dimers (corrected for mNG maturation) (mNG-SHIP1(ΔCTD) (human) [3]): 26%
fraction of legitimate dimers with two mNG visible (mNG-SHIP1(ΔCTD) (human) [3]): 13%

mNG-mSHIP1(ΔCTD) (domain or fragment)
membrane dwell time τ1 [2]: 0.409 s

B1: pY-ITIM peptide CKTEAENTIT(pY)SLIK, conjugated to the supported membrane (peptide)
peptide: C(MCC‑PE lipid)KTEAENTIT[pY]SLIK
notes: cysteine added to the N terminus for coupling to the maleimide lipid; also called membrane-conjugated pY-ITIM peptides; pY-conjugated peptide; source: synthetic peptide (Elim Biopharmaceuticals), covalently coupled to MCC-PE lipids of the supported membrane
binding result (mNG-SHIP1(FL)): binds

B2: mNG-SHIP1(RBD) (domain or fragment, human, UniProt Q92835-2 151-290, looked up)
chain: ATETSRPSLSETLFQRLQSMDTSGLPEEHLKAIQDYLSTQLAQDSEFVKTGSSSLPHLKKLTTLLCKELYGEVIRTLPSLESLQRLFDQQLSPGLRPRPQVPGEANPINMVSKLSQLTSLLSSIEDKVKALLHEGPESPH
notes: the clone is UniProt Q92835 isoform 2, missing V117; A GGGGG linker stands between mNG and SHIP1; 42.7 kDa for the monomeric species; also called SHIP1(RBD) fused to an mNeonGreen (mNG); his10-mNG-GGGGG-SHIP1 (RBD, 151–290 amino acids); source: E. coli BL21 (DE3) Star, purified (HiTrap chelating column with CoCl2, TEV cleavage, Superdex 200); not shown: His10, N-terminal, cleaved; mNeonGreen, …
stoichiometry N [4]: 2

B3
stoichiometry N [5]: 2
